Results from patent US20190367619A1 (ARGENX, published 2019).
Where a chain is given by its changes, count along the chain named. Where two headings read alike, the source gives them in different places.

B1: 6F05 scFv-human Fc (Fc fusion)
scFv: QLQLVESGGGLVQPGGSLRLSCAASGFTFSSYAMSWVRQAPGKGLEWVSAINSGGGSTSYADSVKGRFTISRDNAKNTLYLQMNSLKPEDTAVYYCATPGDRLWYYRYDYWGQGTQVTVSSGGGGSGGGGSGGGGSQAGLTQPPSVSGTLGKAVTISCAGTSSDIGYGNYVSWYQQLPGTAPKLLIYKVSRRASGVPDRFSGSKSGNTASLSISGLQSEDEADYYCASYRYRNNVVFGGGTHLTVL
notes: about 100 kDa on SDS-PAGE; also called 6F5; 6F05 ScFv-hFc; not shown: CH2-CH3 constant domains of human IgG1 (vector pUPEX50)
B2: 6F11 scFv-human Fc (Fc fusion)
scFv: QVQRQESGPGLVKPSQTLSVTCTVSGGSITTGPYSWSWIRQPPGKGLEWIGYIGYSGSTYYSPSLKSRTSISRDTSNNQFSLQLSSVTPEDTAVYYCARSRSSPTTFGMDYWGKGTLVTVSSGGGGSGGGGSGGGGSSSALTQPSAVSVSLGQTARITCQGGDFGRYYVAWYTQKPGQAPVLVIYQDSERPSGIPERFSGSSSGDTATLTISGAQAEDEAEYYCQSGISSDNIVFGGGTHLTVL
notes: about 100 kDa on SDS-PAGE; also called 6F11 ScFv-hFc; not shown: CH2-CH3 constant domains of human IgG1 (vector pUPEX50)
B3: 6A11 scFv-human Fc (Fc fusion)
scFv: ELQLVESGGGLVQPGGSLRLSCSASGFTFGAYAMNWVRQAPGKGLEWVSGVNSGGGLTSYGESVKGRFTISRDNAKNTLYLQMNRLNPDDTAVYYCAKSKRGAVVAGTGDDYWGQGTQVTVSSGGGGSGGGGSGGGGSSSALTQPSAVSVSLGQTARITCQGGNFGRYYVSWYQQKPGQAPVLVIYKDSERPSGIPERFSGSSSGDTATLTISGAQAEDEADYYCQSGSSSDNAVFGGGTHLTVL
notes: about 100 kDa on SDS-PAGE; also called 6A11 ScFv-hFc; not shown: CH2-CH3 constant domains of human IgG1 (vector pUPEX50)
B4: VHH 1D06 (purified, Myc-His tagged) (VHH, not shown: small tags and cut ends)
VHH: QLQLVESGGGLVQPGGSLRLSCAASENSVSTYAMGWFRQAPGKEREFVAAITRAGGNTYNADSVKGRFTISRDNAENTIYLQMNSLKPEDTAVYSCAAGPRYSTISTMFPYWGQGTQVTVSS
notes: also called 1D6

Key:
[1] = target: TEV-cleaved wild-type recombinant human galectin-10 (soluble, in Fab complexes, or as recombinant galectin-10 crystals / CLCs) (human) (UniProt Q05315); experiment: cell-based or functional assay
[2] = target: human galectin-10-His (recombinant human galectin-10 with TEV-cleavable N-terminal His-tag) (human); experiment: ELISA, scFv-hFc on coated galectin-10-His (0.2 ug/mL)
[3] = target: T1, TEV-cleaved wild-type recombinant human galectin-10 (soluble, in Fab complexes, or as recombinant galectin-10 … (human, UniProt Q05315 1-142)); experiment: cell-based or functional assay
T1 sequence: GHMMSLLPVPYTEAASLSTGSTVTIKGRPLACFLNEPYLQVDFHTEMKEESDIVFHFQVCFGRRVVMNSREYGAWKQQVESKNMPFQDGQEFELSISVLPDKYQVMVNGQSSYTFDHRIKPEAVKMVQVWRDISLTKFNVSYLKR

[4] = target: T1, TEV-cleaved wild-type recombinant human …; experiment: cell-based or functional assay; remark: listed apart in the source
[5] = target: T1, TEV-cleaved wild-type recombinant human …; experiment: cell-based or functional assay; remark: listed apart in the source
[6] = target: T2, human galectin-10-His (recombinant human galectin-10 with TEV-cleavable N-terminal His-tag) (human); experiment: ELISA binding (summary table), scFv-human Fc
T2 construct: SEC-MALLS: dimer in solution; also called Gal10-His; humanGal10-His
T2 chain: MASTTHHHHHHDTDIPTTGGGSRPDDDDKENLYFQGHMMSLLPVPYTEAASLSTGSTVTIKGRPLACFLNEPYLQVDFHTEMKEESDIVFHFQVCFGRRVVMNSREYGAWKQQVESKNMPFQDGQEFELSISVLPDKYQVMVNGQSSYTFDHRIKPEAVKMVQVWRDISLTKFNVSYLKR

[7] = target: T2, human galectin-10-His (recombinant …); experiment: ELISA, scFv-hFc on coated galectin-10-His (0.2 ug/mL)
Experimental: In a similar setup to that used during the initial screening, the relative binding properties of the 12 scFv-human Fc clones were analyzed by ELISA. Briefly, a Maxisorp plate was coated with galectin-10-His at 0.2 μg/mL and blocked with casein, before being incubated with a serial dilution of the scFv-human Fc fusion molecules. After several washing steps, detection of the bound scFv-human Fc was carried out with an anti-human Fc-HRP antibody. Absorbance was measured at 450 nm (reference at 620 nm) with Tecan instrument. Finally, the raw data (OD values) were plotted on GraphPad Prism 7.01. The EC50 value of each compound was calculated with a non-linear regression (log(agonist) vs. response Variable slope (four parameters)).

[8] = target: T2, human galectin-10-His (recombinant …); experiment: Biacore capture approach (summary table), scFv-human Fc
Experimental: (§1) In order to determine the binding properties (on-rate/off-rate) of the scFv-human Fc panel, their binding capacity to galectin-10 was analyzed on Biacore T3000. For this purpose, a capture approach was set up. A CM5 Chip was coated with polyclonal anti-human Fc at 8000 RU, then a fixed concentration of the scFv-human Fc panel (1.5 μg/mL), diluted in HBS-EP pH7.4, were captured to reach a binding signal around 150 RU. Finally, a serial dilution of galectin-10-His (serial dilution, 1 over 2 from 5 μg/mL, 6 points of dilution) diluted in HBS-EP pH7.4 was injected. Raw data were analyzed via BIA evaluation software with a blank subtraction (4-3). The kd/KD and Rmax of each scFv-human Fc for galectin-10-His was determined using the Fit Kinetics simultaneous ka/kd/Binding with mass transfer/Local Rmax on BIA evaluation software.

[9] = target: T2, human galectin-10-His (recombinant …); experiment: SPR Biacore T3000, scFv-hFc captured by anti-human Fc, galectin-10-His as analyte
Experimental: as §1

[10] = target: T2, human galectin-10-His (recombinant …); experiment: as above
[11] = target: T3, cynomolgus galectin-10-His, WGS isoform (cynomolgus); experiment: ELISA, VHH on coated cynomolgus WGS galectin-10-His (1 ug/mL)
T3 construct: not shown: His tag
T3 chain: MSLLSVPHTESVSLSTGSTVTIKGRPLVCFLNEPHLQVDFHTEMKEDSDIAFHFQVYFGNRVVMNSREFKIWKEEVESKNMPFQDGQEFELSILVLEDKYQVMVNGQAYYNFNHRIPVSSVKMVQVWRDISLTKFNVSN

[12] = target: T4, cynomolgus galectin-10-His, YRT isoform (cynomolgus); experiment: ELISA, VHH on coated cynomolgus YRT galectin-10-His (1 ug/mL)
T4 construct: not shown: His tag
T4 chain: T3 chain with K23E, G24A, L31F, F69Y, K70R, I71T, S92R

Row | Molecule | Bmax (OD values) [7] | EC50 [7] | Kd [9] | koff [9] | Kd [10] | also measured
1 | Isotype control, scFv-human Fc (irrelevant scFv-human Fc) (Fc fusion) | – | – | – | – | – | CLC formation (crystallization robot assay) [1]: 100%; Bmax (OD values) [2]: 0.018 OD
2 | B1 | 2.9 OD | 0.02 nM | 0.918 nM | 0.000117 s⁻¹ | – | dissolution of in vitro grown Gal10 crystals (spinning disk confocal microscopy) [3]: ≤ 90 min; 100% Solubilization of CLC (Conc uM) [4]: 4 µM; 100% Inhibition of CLC formation (Conc uM) [5]: 1 µM; 100% Solubilization of CLC (Conc uM) [5]: 4 µM; EC50 [6]: 0.02 nM; Kd [8]: 0.9 nM; koff [8]: 0.00012 s⁻¹
3 | B2 | 1.56 OD | 0.48 nM | 2.96 nM | 0.0172 s⁻¹ | > 17 nM | –
4 | B3 | 1.59 OD | 0.01 nM | 0.711 nM | 0.124 s⁻¹ | > 17 nM | –
5 | B4 | – | – | – | – | – | binding result [11]: no binding; binding result [12]: no binding
